According to US20180371044A1, “PEPTIDOMIMETIC MACROCYCLES” (Aileron Therapeutics, Inc., priority 2015, published 2018):
pEC50: −log10 of the molar value. Where a SMILES comes first, the peptide text is derived from it. Bridges are numbered along the chain shown (N, C = ends). [ ]: non-standard residue; d: D form. NMeY = CN[C@@H](Cc1ccc(O)cc1)C(=O)O; S5 = C=CCCC[C@](C)(N)C(=O)O; Nle = CCCC[C@H](N)C(=O)O

Tests used:
[1] = molecular target: T1, human GHRH receptor (hGHRHR) (Homo sapiens, UniProt Q02643); experiment: GHRHR agonism measured by cAMP (HTRF) in human 293 cells expressing hGHRHR; type: cell-based; conditions: 30 min at RT;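 note: receptor expressed transiently or stably, cells stimulated in serum-free medium, EC50 from a non-linear dose-response fit, maximal response defined by reference GHRH stimulation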
T1 construct: expressed in transfected cells; host or cells: Human 293 cells
T1 sequence (Q02643 23-423): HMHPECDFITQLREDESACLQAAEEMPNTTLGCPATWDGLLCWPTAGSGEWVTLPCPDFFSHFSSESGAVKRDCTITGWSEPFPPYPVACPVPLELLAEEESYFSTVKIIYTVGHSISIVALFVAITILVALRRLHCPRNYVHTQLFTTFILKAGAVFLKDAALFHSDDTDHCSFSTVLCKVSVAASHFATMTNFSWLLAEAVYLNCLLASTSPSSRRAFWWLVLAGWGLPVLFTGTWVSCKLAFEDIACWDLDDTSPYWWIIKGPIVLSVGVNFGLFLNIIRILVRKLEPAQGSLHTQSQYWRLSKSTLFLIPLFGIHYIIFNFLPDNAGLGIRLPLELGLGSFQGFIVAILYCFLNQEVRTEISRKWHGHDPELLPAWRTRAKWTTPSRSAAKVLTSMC
Experimental: GHRH (1-29) and cross-linked peptidomimetic macrocycles were tested for agonism at the human GHRH receptor (hGHRHR) at various concentrations. Human 293 cells transiently or stably expressing hGHRHR were detached from cell culture flasks with versene (Life Technologies™), suspended in serum-free medium (50 k cells/assay point), and stimulated for 30 min at RT with GHRH (1-29) (Bachem™) or cross-linked peptidomimetic macrocycles. cAMP was quantified using an HTRF®-based assay (CisBio) and used according to the manufacturer's instructions. An EC50 for each agonist was calculated from a non-linear fit of response vs dose (GraphPad™ Prism). The maximum response was determined by stimulating with 10 μM GHRH (1-29). (+=>50 nm; ++=>25-50 nm; +++=>10-25 nm; ++++=>1-10 nm; +++++=≤1 nm).

[2] = molecular target: T2, GHRHR (Homo sapiens, UniProt Q02643); experiment: DiscoverX cAMP Hunter eXpress GHRHR CHO-K1 GPCR assay; type: cell-based; conditions: for Selectivity: EC50 in VIPR1 CHO-K1 cells divided by EC50 in GHRHR CHO-K1 cells; for pEC50: GHRHR CHO-K1 cells, cAMP
T2 construct: host or cells: CHO-K1 (cAMP Hunter eXpress GHRHR CHO-K1 GPCR assay kit)
T2 sequence (Q02643 23-423): T1 sequence (Q02643 23-423)
Experimental: DiscoverX cAmP Hunter eXpress VIPRI CHO-K1 GPCR and GHRHR CHO-K1 GPCR assays kits were used. […] Following ligand stimulation, the functional status of the GPCR is monitored by measuring cellular cAMP levels using a homogeneous, gain of signal competitive immunoassay based on Enzyme Fragment Complementation (EFC). The amount of EFC is measured by analysis with a fluorescent plate reader.
DiscoverX™ cAmP Hunter eXpress VIPR1 CHO-K1 GPCR and GHRHR CHO-K1 GPCR assay kits were used. On the day before the assay, the DiscoverX™ cell lines were defrosted, plated into 384 well plates and allowed to incubate overnight. All the samples were diluted to 2 mM using 100% DMSO. The vials were sonicated and centrifuged to assure all peptides went into solution. The final volumes were small, 80-200 μl. An 80% purity and peptide content was assumed for all samples and dilutions were based on the molecular weights. On the day of the assay, the samples were diluted to 200 μM in water and then to 4 μM in DiscoverX™ assay buffer (supplemented with 0.1% BSA). Serial dilutions were performed on assay day, 16 dilutions from 1000 nM were run side by side in duplicate for each peptide for study. The assays were performed in the 384 well plates with the assistance of a CyBio™ Bi-Well 384 channel liquid handling robot. The samples were analyzed on a Tecan™ Ultra Evolution plate reader according to DiscoverX™ guidelines. The EC50 values were determined using GraphPad™ Prism software. The EC50 value is defined as the concentration of agonist that provokes a response halfway between the baseline and maximum response. […] The selectivity value is the concentration of agonist that provokes a response halfway between the baseline and maximum response in VIPR1 CHO-K1 cells divided by the concentration of agonist that provokes a response halfway between the baseline and maximum response in GHRHR CHO-K1 cells.

[3] = molecular target: T3, VIPR1 (Vasointestinal Peptide Receptor 1) (Homo sapiens, UniProt P32241); experiment: DiscoverX cAMP Hunter eXpress VIPR1 CHO-K1 GPCR assay; type: cell-based; conditions: VIPR1 CHO-K1 cells
T3 construct: host or cells: CHO-K1 (cAMP Hunter eXpress VIPR1 CHO-K1 GPCR assay kit)
T3 sequence (P32241 31-457): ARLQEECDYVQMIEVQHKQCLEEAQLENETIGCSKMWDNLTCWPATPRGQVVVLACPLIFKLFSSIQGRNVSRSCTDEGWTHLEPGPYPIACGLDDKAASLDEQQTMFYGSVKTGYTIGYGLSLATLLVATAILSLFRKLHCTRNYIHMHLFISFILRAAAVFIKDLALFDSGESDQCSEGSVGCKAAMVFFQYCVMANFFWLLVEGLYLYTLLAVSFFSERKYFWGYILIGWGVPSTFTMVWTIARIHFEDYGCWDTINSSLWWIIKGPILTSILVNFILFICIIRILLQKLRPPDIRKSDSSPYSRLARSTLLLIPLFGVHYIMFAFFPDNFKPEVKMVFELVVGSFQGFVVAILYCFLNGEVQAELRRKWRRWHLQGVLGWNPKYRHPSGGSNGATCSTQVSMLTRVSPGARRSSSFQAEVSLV
Text: DiscoverX cAmP Hunter eXpress VIPRI CHO-K1 GPCR and GHRHR CHO-K1 GPCR assays kits were used. The DiscoverX kits contain naturally coupled GPCR cell lines designed to detect GPCR signaling through second messenger activation. This signaling involves a membrane bound enzyme called adenylate cyclase. […] receptors modulate cAMP by either inhibiting or stimulating adenylate cyclase, respectively. The DiscoverX cell lines included in the kits utilize the natural coupling status of the GPCR to monitor activation of […] receptors. Following ligand stimulation, the functional status of the GPCR is monitored by measuring cellular cAMP levels using a homogeneous, gain of signal competitive immunoassay based on Enzyme Fragment Complementation (EFC). The amount of EFC is measured by analysis with a fluorescent plate reader.
On the day before the assay, the DiscoverX cell lines were defrosted, plated into 384 well plates and allowed to incubate overnight. All the samples were diluted to 2 mM using 100% DMSO. The vials were sonicated and centrifuged to assure all peptides went into solution. The final volumes were small, 80-200 μl. An 80% purity and peptide content was assumed for all samples and dilutions were based on the molecular weights. On the day of the assay, the samples were diluted to 200 μM in water and then to 4 μM in DiscoverX assay buffer (supplemented with 0.1% BSA). Serial dilutions were performed on assay day, 16 dilutions from 1000 nM were run side by side in duplicate for each peptide for study. The assays were performed in the 384 well plates with the assistance of a CyBio Bi-Well 384 channel liquid handling robot. The samples were analyzed on a Tecan Ultra Evolution plate reader according to DiscoverX guidelines. The EC50 values were determined using GraphPad Prism software. The EC50 value is defined as the concentration of agonist that provokes a response halfway between the baseline and maximum response.
DiscoverX™ cAmP Hunter eXpress VIPR1 CHO-K1 GPCR and GHRHR CHO-K1 GPCR assay kits were used. On the day before the assay, the DiscoverX™ cell lines were defrosted, plated into 384 well plates and allowed to incubate overnight. All the samples were diluted to 2 mM using 100% DMSO. The vials were sonicated and centrifuged to assure all peptides went into solution. The final volumes were small, 80-200 μl. An 80% purity and peptide content was assumed for all samples and dilutions were based on the molecular weights. On the day of the assay, the samples were diluted to 200 μM in water and then to 4 μM in DiscoverX™ assay buffer (supplemented with 0.1% BSA). Serial dilutions were performed on assay day, 16 dilutions from 1000 nM were run side by side in duplicate for each peptide for study. The assays were performed in the 384 well plates with the assistance of a CyBio™ Bi-Well 384 channel liquid handling robot. The samples were analyzed on a Tecan™ Ultra Evolution plate reader according to DiscoverX™ guidelines. The EC50 values were determined using GraphPad™ Prism software. The EC50 value is defined as the concentration of agonist that provokes a response halfway between the baseline and maximum response. (+=>25 nM; ++=>10-25 nM; +++=>1-10 nM; ++++=>0.1-1 nM; +++++=<0.1 nM). […]

[4] = Plasma compatibility; type: physicochemical
Experimental: The plasma compatibility of exemplary peptidomimetic macrocycles was also determined. Peptidomimetic macrocycles with a plasma compatability value (PC) that is greater than 0.1 were determined as being plasma compatible.

[5] = Solubility by measuring turbidity (OD600) in human plasma; type: physicochemical
Experimental: In some embodiments, a peptidomimetic macrocycle can be prepared based on solubility of the polypeptide, for example if the prepared peptidomimetic macrocycle is determined to be soluble based on visual examination of the turbidity of a solution of the polypeptide. In some embodiments, an aqueous solubility of the peptidomimetic macrocycle is determined by evaluating the turbidity of a solution comprising the peptidomimetic macrocycle. In some embodiments, a plasma solubility of the peptidomimetic macrocycle is determined by evaluating the turbidity of a solution comprising the peptidomimetic macrocycle.
Increasing amounts of SP-3 and SP-133 were added to human plasma. The OD600 of each of the solutions was then measured.

| pEC50 [1] | Selectivity [2] | pEC50 [2] | pEC50 [3] | Plasma Compatability [4] [mg/mL] | Compound | OD600 ([5]; 7 mg/mL) | OD600 ([5]; 10 mg/mL) | OD600 ([5]; 12 mg/mL) | OD600 ([5]; 16 mg/mL) | OD600 ([5]; 21 mg/mL) | OD600 ([5]; 27 mg/mL) | OD600 ([5]; 35 mg/mL) | OD600 ([5]; 46 mg/mL) | OD600 ([5]; 59 mg/mL) | OD600 ([5]; 77 mg/mL) | OD600 ([5]; 100 mg/mL) | turbidity ([5]; up to 100 mg/mL) |
| --- | --- | --- | --- | --- | --- | --- | --- | --- | --- | --- | --- | --- | --- | --- | --- | --- | --- |
| ≥ 9.00 | + (+=<5) | > 10.00 | > 10.00 | 1.6 | CCCC[C@H](NC(=O)[C@@H](NC(=O)[C@H](CC(=O)O)NC(=O)[C@H](CCC(N)=O)NC(=O)[C@H](CC(C)C)NC(=O)[C@H](C)NC(=O)[C@H](CCCCN)NC(=O)[C@H](CCCNC(=N)N)NC(=O)[C@H](C)NC(=O)[C@H](CO)NC(=O)[C@]1(C)CCCC=CCCC[C@](C)(NC(=O)[C@H](CCCCN)NC(=O)[C@H](CCCNC(=N)N)NC(=O)[C@H](Cc2ccc(O)cc2)NC(=O)[C@H](CO)NC(=O)[C@H](C)NC(=O)[C@@H](NC(=O)[C@H](Cc2ccccc2)NC(=O)[C@@H](NC(=O)[C@H](C)NC(=O)[C@H](CC(=O)O)NC(=O)[C@H](C)NC(=O)[C@H](Cc2ccc(O)cc2)NC)[C@@H](C)CC)[C@@H](C)O)C(=O)N[C@@H](CC(C)C)C(=O)N[C@@H](C)C(=O)N[C@@H](CCC(N)=O)C(=O)N1)[C@@H](C)CC)C(=O)N[C@@H](CO)C(=O)N[C@@H](CCCNC(=N)N)C(N)=O [SP-12] (H-[NMeY]ADAIFTASYRK[S5]LAQ[S5]SARKALQDI[Nle]SR-NH2; staple 13-17) |  |  |  |  |  |  |  |  |  |  |  |  |
|  | + (+=<5) | 9.00 to 10.00 | 9.00 to 10.00 | 1.6 | CCCC[C@H](NC(=O)[C@@H](NC(=O)[C@H](CC(=O)O)NC(=O)[C@H](CCC(N)=O)NC(=O)[C@H](CC(C)C)NC(=O)[C@H](C)NC(=O)[C@H](CCCCN)NC(=O)[C@H](CCCNC(=N)N)NC(=O)[C@H](C)NC(=O)[C@H](CO)NC(=O)[C@]1(C)CCCC=CCCC[C@](C)(NC(=O)[C@H](CCCCN)NC(=O)[C@H](CCCNC(=N)N)NC(=O)[C@H](Cc2ccc(O)cc2)NC(=O)[C@H](CO)NC(=O)[C@H](CCC(N)=O)NC(=O)[C@@H](NC(=O)[C@H](Cc2ccccc2)NC(=O)[C@@H](NC(=O)[C@H](C)NC(=O)[C@H](CC(=O)O)NC(=O)[C@@H](C)NC(=O)[C@H](Cc2ccc(O)cc2)NC)[C@@H](C)CC)[C@@H](C)O)C(=O)N[C@@H](CC(C)C)C(=O)N[C@@H](C)C(=O)N[C@@H](CCC(N)=O)C(=O)N1)[C@@H](C)CC)C(=O)N[C@@H](CO)C(=O)N[C@@H](CCCNC(=N)N)C(N)=O [SP-69] (H-[NMeY][dA]DAIFTQSYRK[S5]LAQ[S5]SARKALQDI[Nle]SR-NH2; staple 13-17) |  |  |  |  |  |  |  |  |  |  |  |  |

| Compound | pEC50 [1] | Selectivity [2] | pEC50 [2] | pEC50 [3] | Plasma Compatability [4] [mg/mL] | OD600 ([5]; 7 mg/mL) | OD600 ([5]; 10 mg/mL) | OD600 ([5]; 12 mg/mL) | OD600 ([5]; 16 mg/mL) | OD600 ([5]; 21 mg/mL) | OD600 ([5]; 27 mg/mL) | OD600 ([5]; 35 mg/mL) | OD600 ([5]; 46 mg/mL) | OD600 ([5]; 59 mg/mL) | OD600 ([5]; 77 mg/mL) | OD600 ([5]; 100 mg/mL) | turbidity ([5]; up to 100 mg/mL) |
| --- | --- | --- | --- | --- | --- | --- | --- | --- | --- | --- | --- | --- | --- | --- | --- | --- | --- |
| SP-133: GHRH peptidomimetic macrocycle (YADAIFTASYRKALAQASARKALQDILSR; not fully specified; D-residues; non-natural residues; cyclised or stapled) |  | ++ (++=>5-15) | 8.00 to 9.00 | < 7.60 | >10 | 0.0 | 0.0 | 0.0 | 0.0 | 0.0 | 0.0 | 0.0 | 0.0 | 0.0 | 0.0 | 0.0 | no turbidity |
